Data set [1] has as its system HeLa Kyoto. Kind of data set: melting temperature (median over replicates), in situ; higher = more thermally stable.
The subject of data set [2] is HeLa Kyoto. Kind of data set: solubility change mitosis vs G1/S (difference of NP-40 vs SDS log2 ratios) (log2 ratio difference); higher = more soluble in mitosis.
Data set [3] deals with HeLa Kyoto. Kind of data set: solubility in G1/S (NP-40 vs SDS abundance) (log2 ratio); higher = more soluble. The conditions noted are these: cell cycle stage: G1/S.
Data set [4] relates to HeLa Kyoto. Nature of the data set: thermal stability score vs G1/S (z-score of summed log2 fold changes over temperatures); higher = more thermally stable than in G1/S.
The mark [5] stands for this setting: cell cycle stage: early G1 (4.5 h after nocodazole release).
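Throughout, for melting temperature (median over replicates), in situ: HeLa Kyoto cells synchronized by double thymidine or nocodazole block, proteins quantified by TMT10plex mass spectrometry, three independent biological replicates.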
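Throughout, for solubility change mitosis vs G1/S (difference of NP-40 vs SDS log2 ratios): synchronized HeLa Kyoto cells (double thymidine block for G1/S, nocodazole release for mitosis), protein amounts in NP-40 versus SDS lysates quantified by mass spectrometry, three biological replicates.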
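Throughout, for solubility in G1/S (NP-40 vs SDS abundance): HeLa Kyoto cells arrested at G1/S by double thymidine block, proteins quantified by TMT10plex mass spectrometry in mild NP-40 versus SDS extracts, three biological replicates.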
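Throughout, for thermal stability score vs G1/S (z-score of summed log2 fold changes over temperatures): synchronized HeLa Kyoto cells, proteins quantified by TMT10plex mass spectrometry, three biological replicates, mitosis taken 0.5 h after nocodazole release, G1/S directly after double thymidine block.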

MTO1, sequence (chain, as listed by the source): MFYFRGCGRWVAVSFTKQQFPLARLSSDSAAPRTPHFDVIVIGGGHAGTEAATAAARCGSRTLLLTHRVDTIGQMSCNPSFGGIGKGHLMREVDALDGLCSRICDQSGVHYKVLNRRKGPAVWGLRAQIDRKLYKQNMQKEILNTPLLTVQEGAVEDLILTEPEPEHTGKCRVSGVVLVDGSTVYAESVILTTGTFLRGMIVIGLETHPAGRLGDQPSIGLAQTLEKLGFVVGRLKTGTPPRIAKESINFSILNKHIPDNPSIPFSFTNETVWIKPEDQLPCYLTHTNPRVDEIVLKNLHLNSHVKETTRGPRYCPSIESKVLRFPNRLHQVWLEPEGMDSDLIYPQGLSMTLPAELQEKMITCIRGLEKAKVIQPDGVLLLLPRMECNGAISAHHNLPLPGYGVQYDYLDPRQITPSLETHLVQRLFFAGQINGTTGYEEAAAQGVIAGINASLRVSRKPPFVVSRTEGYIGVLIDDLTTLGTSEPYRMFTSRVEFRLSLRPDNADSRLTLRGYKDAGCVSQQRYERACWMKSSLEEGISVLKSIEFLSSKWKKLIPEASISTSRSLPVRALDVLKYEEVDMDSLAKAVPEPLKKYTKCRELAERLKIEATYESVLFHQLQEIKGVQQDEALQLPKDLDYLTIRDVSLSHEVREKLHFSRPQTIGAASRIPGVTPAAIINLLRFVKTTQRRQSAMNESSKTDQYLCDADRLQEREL

As for “MTNPSDRVLPANSMAESREGDFGCTVMELRKLMELRSRDALTQINVHYGGVQNLCSRLKTSPVEGLSGNPADLEKRRQVFGHNVIPPKKPKTFLELVWEALQDVTLIILEIAAIISLVLSFYRPAGEENELCGQVATTPEDENEAQAGWIEGAAILFSVIIVVLVTAFNDWSKEKQFRGLQCRIEQEQKFSIIRNGQLIQLPVAEIVVGDIAQVKYGDLLPADGILIQGNDLKIDESSLTGESDHVKKSLDKDPMLLSGTHVMEGSGRMVVTAVGVNSQTGIILTLLGVNEDDEGEKKKKGKKQGVPENRNKAKTQDGVALEIQPLNSQEGIDNEEKDKKAVKVPKKEKSVLQGKLTRLAVQIGKAGLLMSALTVFILILYFVIDNFVINRRPWLPECTPIYIQYFVKFFIIGITVLVVAVPEGLPLAVTISLAYSVKKMMKDNNLVRHLDACETMGNATAICSDKTGTLTMNRMTVVQAYIGGIHYRQIPSPDVFLPKVLDLIVNGISINSAYTSKILPPEKEGGLPRQVGNKTECALLGFVTDLKQDYQAVRNEVPEEKLYKVYTFNSVRKSMSTVIRNPNGGFRMYSKGASEIILRKCNRILDRKGEAVPFKNKDRDDMVRTVIEPMACDGLRTICIAYRDFDDTEPSWDNENEILTELTCIAVVGIEDPVRPEVPDAIAKCKQAGITVRMVTGDNINTARAIATKCGILTPGDDFLCLEGKEFNRLIRNEKGEVEQEKLDKIWPKLRVLARSSPTDKHTLVKGIIDSTVGEHRQVVAVTGDGTNDGPALKKADVGFAMGIAGTDVAKEASDIILTDDNFTSIVKAVMWGRNVYDSISKFLQFQLTVNVVAVIVAFTGACITQDSPLKAVQMLWVNLIMDTFASLALATEPPTESLLKRRPYGRNKPLISRTMMKNILGHAFYQLIVIFILVFAGEKFFDIDSGRKAPLHSPPSQHYTIVFNTFVLMQLFNEINSRKIHGEKNVFSGIYRNIIFCSVVLGTFICQIFIVEFGGKPFSCTSLSLSQWLWCLFIGIGELLWGQFISAIPTRSLKFLKEAGHGTTKEEITKDAEGLDEIDHAEMELRRGQILWFRGLNRIQTQIDVINTFQTGASFKGVLRRQNMGQHLDVKLVPSSSYIKVVKAFHSSLHESIQKPYNQKSIHSFMTHPEFAIEEELPRTPLLDEEEEENPDKASKFGTRVLLLDGEVTPYANTNNNAVDCNQVQLPQSDSSLQSLETSV [ATP2B4]”, the melting temperature was found to be 54.7 °C in data set [1] (cell cycle stage: G1/S) and 54.9 °C in data set [1] (cell cycle stage: mitosis). For the same substance, the “solubility change mitosis (log2)” value in data set [2] is -0.0607. Besides, the “solubility in G1/S (log2)” value in data set [3] is -0.254. For the same substance, the thermal stability score in data set [4] (setting [5]) worked out at 1.12; in data set [4] (cell cycle stage: mitosis), 0.912.
For the substance MTO1, the melting temperature in data set [1] (cell cycle stage: G1/S) came to 50 °C; in data set [1] (cell cycle stage: mitosis) it was 50.4 °C. Further, the “solubility change mitosis (log2)” value in data set [2] was -0.0427. Also, in data set [3], the “solubility in G1/S (log2)” value was -0.108. The thermal stability score in data set [4] (setting [5]) is -0.222; in data set [4] (cell cycle stage: mitosis), 1.63.
For the substance “MTPEFDEEVVFENSPLYQYLQDLGHTDFEICSSLSPKTEKCTTEGQQKPPTRVLPKQGILLKVAETIKSWIFFSQCNKKDDLLHKLDIGFRLDSLHTILQQEVLLQEDVELIELLDPSILSAGQSQQQENGHLPTLCSLATPNIWDLSMLFAFISLLVMLPTWWIVSSWLVWGVILFVYLVIRALRLWRTAKLQVTLKKYSVHLEDMATNSRAFTNLVRKALRLIQETEVISRGFTLVSAACPFNKAGQHPSQHLIGLRKAVYRTLRANFQAARLATLYMLKNYPLNSESDNVTNYICVVPFKELGLGLSEEQISEEEAHNFTDGFSLPALKVLFQLWVAQSSEFFRRLALLLSTANSPPGPLLTPALLPHRILSDVTQGLPHAHSACLEELKRSYEFYRYFETQHQSVPQCLSKTQQKSRELNNVHTAVRSLQLHLKALLNEVIILEDELEKLVCTKETQELVSEAYPILEQKLKLIQPHVQASNNCWEEAISQVDKLLRRNTDKKGKPEIACENPHCTVVPLKQPTLHIADKDPIPEEQELEAYVDDIDIDSDFRKDDFYYLSQEDKERQKREHEESKRVLQELKSVLGFKASEAERQKWKQLLFSDHAVLKSLSPVDPVEPISNSEPSMNSDMGKVSKNDTEEESNKSATTDNEISRTEYLCENSLEGKNKDNSSNEVFPQGAEERMCYQCESEDEPQADGSGLTTAPPTPRDSLQPSIKQRLARLQLSPDFTFTAGLAAEVAARSLSFTTMQEQTFGGEEEEQIIEENKNEIEEK [VEZT]”, the values for the melting temperature in data set [1] (cell cycle stage: G1/S) and in data set [1] (cell cycle stage: mitosis) were 52.6 °C and 52 °C, respectively. Moreover, in data set [2], the “solubility change mitosis (log2)” value is -0.229. Also, in data set [3], the “solubility in G1/S (log2)” value amounted to 0.0301. The thermal stability score in data set [4] (setting [5]) was -1.08; in data set [4] (cell cycle stage: mitosis), -3.04.
As for “MTSAAPAKKPYRKAPPEHRELRLEIPGSRLEQEEPLTDAERMKLLQEENEELRRRLASATRRTEALERELEIGQDCLELELGQSREELDKFKDKFRRLQNSYTASQRTNQELEDKLHTLASLSHSWIFAIKKAEMDRKTLDWEIVELTNKLLDAKNTINKLEELNERYRLDCNLAVQLLKCNKSHFRNHKFADLPCELQDMVRKHLHSGQEAASPGPAPSLAPGAVVPTSVIARVLEKPESLLLNSAQSGSAGRPLAEDVFVHVDMSEGVPGDPASPPAPGSPTPQPNGECHSLGTARGSPEEELPLPAFEKLNPYPTPSPPHPLYPGRRVIEFSEDKVRIPRNSPLPNCTYATRQAISLSLVEEGSERARPSPVPSTPASAQASPHHQPSPAPLTLSAPASSASSEEDLLVSWQRAFVDRTPPPAAVAQRTAFGRDALPELQRHFAHSPADRDEVVQAPSARPEESELLLPTEPDSGFPREEEELNLPISPEEERQSLLPINRGTEEGPGTSHTEGRAWPLPSSSRPQRSPKRMGVHHLHRKDSLTQAQEQGNLLN [TJAP1]”, the melting temperature in data set [1] (cell cycle stage: G1/S) was 51.1 °C; in data set [1] (cell cycle stage: mitosis), 51.7 °C. Besides, the “solubility change mitosis (log2)” value in data set [2] was -0.036. Also, the “solubility in G1/S (log2)” value in data set [3] came to 0.288. Moreover, the figures for the thermal stability score in data set [4] (setting [5]) and in data set [4] (cell cycle stage: mitosis) were 1.77 and 3.57, respectively.
